Laboratory results: patent publication US20040098763A1 (published 2004)

What was measured:
[1] = target: T1, CycD2 (Arath; CycD2; 1) in DB-vector (Arabidopsis, UniProt P04386 1-147; P42752 1-361); experiment: yeast two-hybrid (MaV203), X-Gal filter assay for β-galactosidase; AD construct x BD construct
T1 construct: Yeast two-hybrid DB/BD fusion; also called cyclin D2
Method: (§1) ⁽¹⁾For each interaction test, yeast strain (MaV203) was transformed first with AD constructs listed in the first row, and then with BD constructs listed in the first column of the table following standard protocol. Three independent colonies from each interaction combination were used in X-Gal filter assay for β-galactosidase activity. The results of X-Gal assays were recorded at 2, 4, and 20 hours (overnight). Color intensity determined by visual inspection: “−” = none; “+” = weak; “++” = moderate; “+++” = strong. ⁽²⁾Faint color was visible after overnight incubation.

[2] = target: T2, CycD1 (Arath; CycD1; 1) in DB-vector (A. thaliana, UniProt P04386 1-147; P42751 1-339); experiment: as above
T2 construct: Yeast two-hybrid DB/BD fusion
Method: as §1

[3] = target: T3, Cdc2b (Cdc2bAt) in DB-vector (A. thaliana, UniProt P04386 1-147; P25859 1-309); experiment: as above
T3 construct: Yeast two-hybrid DB/BD fusion
Method: as §1

[4] = target: T4, CycB2 (Arath; CycB2; 2) in DB-vector (A. thaliana, UniProt P04386 1-147; Q39070 1-429); experiment: yeast two-hybrid, quantification of reporter activity; ICK1 in GAL4-AD vector, partner in DB vector
T4 construct: Yeast two-hybrid DB fusion

[5] = target: T5, Cdc2a (Cdc2aAt) in DB-vector (Arabidopsis, UniProt P04386 1-147; P24100 1-294); experiment: as above
T5 construct: Yeast two-hybrid DB/BD fusion; also called Arath;CDKA;1

PCNAAt in DB-vector = target: T6, PCNAAt in DB-vector (Arabidopsis); experiment: as above
T6 construct: Yeast two-hybrid DB/BD fusion; also called Arabidopsis PCNA

ATMAP2 in DB-vector = target: T7, ATMAP2 in DB-vector (A. thaliana); experiment: as above
T7 construct: Yeast two-hybrid DB fusion; also called MAP kinase

[6] = target: T1, CycD2 (Arath; CycD2; 1) in DB-vector; experiment: as above
[7] = target: T2, CycD1 (Arath; CycD1; 1) in DB-vector; experiment: as above
[8] = target: T8, CycB1 (Arath; CycB1; 1) in DB-vector (A. thaliana, UniProt P04386 1-147; P30183 1-428); experiment: as above
T8 construct: Yeast two-hybrid DB fusion; also called Cyc1At

[9] = target: T9, CycD3 (Arath; CycD3; 1) in DB-vector (Arabidopsis, UniProt P04386 1-147; P42753 1-376); experiment: as above
T9 construct: Yeast two-hybrid DB/BD fusion; also called cyclin D3

[10] = target: T10, vector alone (DB-vector without a gene) (UniProt P04386 1-147); experiment: as above
T10 construct: also called Control

[11] = target: T3, Cdc2b (Cdc2bAt) in DB-vector; experiment: as above
[12] = target: T11, CycA2 (Arath; CycA2; 2) in DB-vector (A. thaliana, UniProt P04386 1-147; Q147G5 1-436, limits assumed); experiment: as above
T11 construct: Yeast two-hybrid DB fusion

[13] = target: T5, Cdc2a (Cdc2aAt) in DB-vector; experiment: yeast two-hybrid (MaV203), X-Gal filter assay for β-galactosidase; AD construct x BD construct
Method: as §1

B1: CKS1At (AD construct) (other, UniProt O23249 1-87, looked up, not shown: large carriers)
chain: MGQIQYSEKYFDDTFEYRHVVLPPEVAKLLPKNRLLSENEWRAIGVQQSRGWVHYAVHRPEPHIMLFRRPLNYQQQQENQAQNMLVK
- binding result [1]: no binding
- binding result [2]: no binding

B2: ICN7 (AD construct) (other, not shown: large carriers)
chain: MGKYMKKSKITGDISVMEVSKATAPSPGVRTRAAKTLALKRLNSSAADSALPNDSSCYLQLRSRRLEKPSSLIEPKQPPRVHRSGIKESGSRSRVDSVNSAPVAQSSNEDECFDNFVSVQVSCGENSLGFESRHSTRESTPCNFVEDMEIMVTPGSSTRSMCRATKEYTREQDNVIPTTSEMEEFFAYAEQQQQRLFMEKYNFDIVNDIPLSGRYEWVQVKP
notes: also called ICK6
- binding result [3]: no binding

B3: ICK1 in a GAL4-activation domain vector (other, not shown: large carriers)
chain: MVRKYRKAKGIVEAGVSSTYMQLRSRRIVYVRSEKSSSVSVVGDNGVSSSCSGSNEYKKKELIHLEEEDKDGDTETSTYRRGTKRKLFENLREEEKEELSKSMENYSSEFESAVKESLDCCCSGRKTMEETVTAEEEEKAKLMTEMPTESEIEDFFVEAEKQLKEKFKKKYNFDFEKEKPLEGRYEWVKLE
notes: Yeast two-hybrid AD fusion; the GAL4 domain is placed first as in standard vectors
- Quantification (yeast two-hybrid reporter activity) [4]: 0.05
- Quantification (yeast two-hybrid reporter activity) [5]: 2.65
- Quantification (yeast two-hybrid reporter activity) (PCNAAt in DB-vector): 0
- Quantification (yeast two-hybrid reporter activity) (ATMAP2 in DB-vector): 0
- Quantification (yeast two-hybrid reporter activity) [6]: 14.8
- Quantification (yeast two-hybrid reporter activity) [7]: 3.13
- Quantification (yeast two-hybrid reporter activity) [8]: 0.06
- Quantification (yeast two-hybrid reporter activity) [9]: 22.7
- Quantification (yeast two-hybrid reporter activity) [10]: 0
- Quantification (yeast two-hybrid reporter activity) [11]: 0
- Quantification (yeast two-hybrid reporter activity) [12]: 0.03
- binding result [3]: no binding

B4: ICK2 (AD construct) (other, not shown: large carriers)
chain: MAAVRRRERDVVEENGVTTTTVKRRKMEEEVDLVESRIILSPCVQATNRGGIVARNSAGASETSVVIVRRRDSPPVEEQCQIEEEDSSVSCCSTSEEKSKRRIEFVDLEENNGDDRETETSWIYDDLNKSEESMNMDSSSVAVEDVESRRRLRKSLHETVKEAELEDFFQVAEKDLRNKLLECSMKYNFDFEKDEPLGGGRYEWVKLNP
- binding result [3]: no binding

B5: ICDK of Chenopodium rubrum (AD construct) (other, not shown: large carriers)
chain: MAAAATPTSSPAKKIKKVSKSSYNIPQLRSRRKNLSAPENFAELETTPLEVAAVVEEEEVANCSSSEVITTARSDFPPSCCSSNYDQLSSSEPEVVKDDDGLGNRTADPEVESGEASSKQKESHRTEAREATKLDDQDYPATKSTVQIKMPSDSEIEEFFAVAEKDLQKRFSEKYNFDIVKDVPLKGRYDWVPINP
notes: Yeast two-hybrid AD fusion; also called ICKCr; Chenopodium ICDK
- binding result [13]: no binding
- binding result [3]: no binding

B6: ICN6 (AD construct) (other, not shown: large carriers)
chain: LSPEKTIMSLREMSETKPKRDSEYEGSNIKRMRLDDDDDVLRSPTRTLSSSSSSSLAYSVSDSGGFCSVALSEEEDDHLSSSISSGCSSSETNEIATRLPFSDLEAHEISETEISTLLTNNFRKQGISSSENLGETAEMDSATTEMRDQRKTEKKKKMEKSPTQAELDDFFSAAERYEQKRFTEKYNYDIVNDTPLEGRYQWVSLKP
notes: also called ICK5
- binding result [13]: no binding
- binding result [3]: no binding

B7: ICN8 (AD construct) (other, not shown: large carriers)
chain: MGKYIRKSKIDGAGAGAGGGGGGGGGGESSIALMDVVSPSSSSSLGVLTRAKSLALQQQQQRCLLQKPSSPSSLPPTSASPNPPSKQKMKKKQQQMNDCGSYLQLRSRRLQKKPPIVVIRSTKRRKQQRRNETCGRNPNPRSNLDSIRGDGSRSDSVSESVVFGKDKDLISEINKDPTFGQNFFDLEEEHTQSFNRTTRESTPCSLIRRPEIMTTPGSSTKLNICVSESNQREDSLSRSHRRRPTTPEMDEFFSGAEEEQQKQFIEKYNFDPVNEQPLPGRFEWTKVDD
notes: Yeast two-hybrid AD fusion; also called ICK7
- binding result [3]: no binding

B8: ICN2 (AD construct) (other, not shown: large carriers)
chain: KKKQRERAHKNPREKKMSERKRELAEEASSTSFSPLKKTKLNDSSDSSPDSHDVIVFAVSSSSVASSAALASDECSVTIGGEESDQSSSISSGCFTSESKEIAKNSSSFGVDLEDHQIETETETSTFITSNFRKETSPVSEGLGETTTEMESSSATKRKQPGVRKTPTAAEIEDLFSELESQDDKKKQFIEKYNFDIVNDEPLEGRYKWDRL
notes: also called ICK4
- binding result [13]: no binding
- binding result [3]: no binding
